# Literature values, collected in patent publication US9163073B2, “Chemically and thermodynamically stable insulin analogues and improved methods for their production” (AMIDEBIO LLC, priority 2013, dated 2015).
# Key:
# [1] = system: breast cancer; settings: in vivo
# [2] = molecular target: insulin receptor over the IGF-1R (Homo sapiens, UniProt P06213)
# [3] = after one year in acidic formulations
selectivity for its own receptor over the IGF-1R [2] [fold],Substance,induction of breast cancer [1],AsnA21 deamidation [3]
–,"AspB10 insulin: insulin analogue with AspB10 substitution, relatively high affinity for the IGF-1R",induce breast cancer,–
> 100,"native insulin: native two-chain human insulin (A chain SEQ ID NO 2, B chain SEQ ID NO 3)",–,20-30%
